Biological target: T1, β-1,3-glucanase (Hevea brasiliensis (endogenous in latex …, UniProt P52407 37-356))
T1 construct: β-1,3-glucanase of the lutoids (B-serum) of Hevea brasiliensis latex; two bands of about 35.5 and 41 kDa, both recognised by anti-glucanase and identified as β-1,3-glucanase by MALDI TOF MS; The preparation holds two forms (35.5 and 41 kDa); source: purified from B-serum of rubber tree latex (0-65% (NH4)2SO4, CM Sepharose Fast Flow); also unpurified in B-serum
Assay: SPR; Biacore 3000, 25 °C; β-1,3-glucanase amine-coupled to a CM5 chip (5000 RU); analytes flowed in HBS-EP pH 7.4 at 30 μL/min; multi-cycle kinetics, 1:1 Langmuir fit; apparent constants
Details: both partners purified

T1 sequence (P52407 37-356): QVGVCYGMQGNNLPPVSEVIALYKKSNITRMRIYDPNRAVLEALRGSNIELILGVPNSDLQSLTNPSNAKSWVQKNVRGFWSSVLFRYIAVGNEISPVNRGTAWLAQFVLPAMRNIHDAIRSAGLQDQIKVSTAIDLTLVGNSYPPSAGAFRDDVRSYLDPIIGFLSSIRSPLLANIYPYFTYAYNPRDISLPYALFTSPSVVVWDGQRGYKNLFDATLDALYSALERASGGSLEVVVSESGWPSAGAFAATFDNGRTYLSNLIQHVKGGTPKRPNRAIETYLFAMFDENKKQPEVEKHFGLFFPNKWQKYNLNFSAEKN

Row | Binder | Kd [µM]
1 | pro-hevein (natural protein, UniProt P02877 18-204, looked up, source: purified from B-serum of rubber tree latex (Sephacryl S-200HR); also unpurified in B-serum) EQCGRQAGGKLCPNNLCCSQWGWCGSTDEYCSPDHNCQSNCKDSGEGVGGGSASNVLATYHLYNSQDHGWDLNAASAYCSTWDANKPYSWRSKYGWTAFCGPVGAHGQSSCGKCLSVTNTGTGAKTTVRIVDQCSNGGLDLDVNVFRQLDTDGKGYERGHITVNYQFVDCGDSFNPLFSVMKSSVIN | 231
2 | EQCGRQAGGKLCPNNLCCSQWGWCGSTDEYCSPDHNCQSNCKD (natural protein, UniProt P02877 18-60, looked up, hevein, the N-terminal part split from pro-hevein, Hevea brasiliensis; runs at 10 kDa in Tricine-SDS-PAGE; source: purified from B-serum of rubber tree latex (85-95% (NH4)2SO4, Sephacryl S-200HR); also unpurified in B-serum) [hevein] | 87.9
